1 substance from patent publication US20230028899A1 can be followed below.

In the test the target is CD19 on CD19+ Raji B cells (UniProt P15391). Kind of test: cell-based or functional assay.
Sequence of UniProt P15391 (P15391 20-556 limits assumed): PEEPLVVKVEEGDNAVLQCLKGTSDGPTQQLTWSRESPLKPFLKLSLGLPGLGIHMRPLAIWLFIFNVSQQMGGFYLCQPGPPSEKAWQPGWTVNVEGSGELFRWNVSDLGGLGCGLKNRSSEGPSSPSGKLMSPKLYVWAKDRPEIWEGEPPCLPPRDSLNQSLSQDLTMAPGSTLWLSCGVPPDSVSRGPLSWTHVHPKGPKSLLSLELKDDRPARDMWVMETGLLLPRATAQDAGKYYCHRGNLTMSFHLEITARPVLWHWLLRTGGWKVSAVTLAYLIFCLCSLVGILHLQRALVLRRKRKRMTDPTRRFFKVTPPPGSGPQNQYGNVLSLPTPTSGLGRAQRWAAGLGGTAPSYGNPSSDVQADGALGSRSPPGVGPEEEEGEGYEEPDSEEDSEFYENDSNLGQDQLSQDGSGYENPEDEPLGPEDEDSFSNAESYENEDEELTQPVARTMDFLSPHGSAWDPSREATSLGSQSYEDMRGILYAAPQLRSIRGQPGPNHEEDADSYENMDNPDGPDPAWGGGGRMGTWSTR

Substance “anti-CD19 CAR (anti-CD19 CAR cassette as described in WO 2012/079000), expressed on transduced CD4+ T-cells” showed a GFP fluorescence of transduced T-cells (GFP-RDE1, MinP), 24 h co-culture, flow cytometry of 6.5%; an activated cells in the population (CD25/CD69 staining), 24 h co-culture, GFP-RDE1 construct of 0.9 to 84.8%; an activated cells in the population (CD25/CD69 staining), 24 h co-culture, GFP-RDE2.1 construct of 3.9 to 12.1%; a fold change in IL-12 expression (ELISA), NFAT promoter, 3'-UTR not responsive to CAR stimulation of 50 fold. For the same substance, the fold change in IL-12 expression (ELISA), NFAT promoter, RDE1 (Gold1) is 168 fold; the fold change in IL-12 expression (ELISA), minP promoter, RDE1 (Gold1) was found to be 6.3 fold; the fold increase in bioluminescence, MinP promoter, RDE1 stood at 4.1 fold; the fold increase in bioluminescence, MinP promoter, RDE2 came out at 1.8 fold. Also, the fold increase in bioluminescence, MinP promoter, RDE3 was determined as 1.4 fold; the fold increase in bioluminescence, NFAT promoter, RDE1 came to 8.5 fold; the fold increase in bioluminescence, NFAT promoter, RDE2 is 3.1 fold; the fold increase in bioluminescence, NFAT promoter, RDE3 is 1.3 fold.
